Like-named read-outs stand apart in the source and are kept apart here.
Key:
Assay in all cases: cell-based or functional assay
denosumab (XGEVA) = biological target: denosumab (XGEVA)
adalimumab (Humira) = biological target: adalimumab (Humira)
IVIg (Octagam) [1] = biological target: IVIg (Octagam)
IVIg (Octagam) [2] = biological target: IVIg (Octagam); remark: listed apart in the source

Row | Substance | enzyme concentration giving a dominating F(ab')2 band on SDS-PAGE (denosumab (XGEVA)) [µg/mL] | enzyme concentration giving a single intense scIgG band on SDS-PAGE (denosumab (XGEVA); scale: pig/ml) | enzyme concentration giving equal cleavage on SDS-PAGE (adalimumab (Humira)) [ng/mL] | Conc. of enzyme, 1st IgG heavy chain, IgG to scIgG (gel) (IVIg (Octagam) [1]) [ng/mL] | Conc. of enzyme, 2nd IgG heavy chain, scIgG to F(ab')2 (gel) (IVIg (Octagam) [1]) [ng/mL] | Conc. of enzyme, 2nd IgG heavy chain, scIgG to F(ab')2 (gel) (IVIg (Octagam) [2]) [ng/mL] | enzyme concentration giving a dominating scIgG band on SDS-PAGE (IVIg (Octagam) [2]) [ng/mL] | enzyme concentration giving mainly scIgG on SDS-PAGE (IVIg (Octagam) [2]) [ng/mL]
1 | pCART144 (IdeZ with additional N terminal methionine and histidine tag) (enzyme) | 3.3 | 0.12 | 4.6 | – | – | – | – | –
2 | pCART124 (IdeS with additional N terminal methionine and histidine tag) (enzyme) | – | – | – | 1900 | 7500 | 6000 | 1.9 | –
3 | BX1001865 (IdeS lacking tag, produced to GMP standard) (enzyme) | – | – | – | 1900 | 7500 | 6000 | 1.9 | 1.9
